Values belong to the binder of their own block, whether it stands above or below them.
Columns and labels:
[1] = target: cynomolgus LAG-3 (Example 3) (cynomolgus); assay: method not stated
[2] = target: T1, human LAG-3 protein (Example 3) (human, UniProt P18627 23-450, limits assumed); assay: SPR; SPR, direct binding
T1 construct: human is stated for the SPR test
T1 sequence (looked up): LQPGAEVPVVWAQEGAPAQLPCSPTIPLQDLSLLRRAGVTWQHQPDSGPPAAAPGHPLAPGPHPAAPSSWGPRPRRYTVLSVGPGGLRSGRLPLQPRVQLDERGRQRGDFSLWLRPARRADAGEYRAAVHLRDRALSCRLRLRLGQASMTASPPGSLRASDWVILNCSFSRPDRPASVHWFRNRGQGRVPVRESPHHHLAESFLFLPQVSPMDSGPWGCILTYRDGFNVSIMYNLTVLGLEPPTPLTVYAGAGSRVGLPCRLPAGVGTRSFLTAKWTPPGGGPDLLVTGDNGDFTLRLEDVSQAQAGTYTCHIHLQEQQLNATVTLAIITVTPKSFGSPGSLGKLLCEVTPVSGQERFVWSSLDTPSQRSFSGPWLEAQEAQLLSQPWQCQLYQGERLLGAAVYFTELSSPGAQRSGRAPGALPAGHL

human LAG-3 on cells [3] = target: T2, human LAG-3 on cells (human, UniProt P18627 23-525); assay: FACS on cell surface human LAG-3
T2 construct: whole, on cells; also called cell surface human LAG-3; human LAG-3 expressing 293F cells
T2 sequence (looked up): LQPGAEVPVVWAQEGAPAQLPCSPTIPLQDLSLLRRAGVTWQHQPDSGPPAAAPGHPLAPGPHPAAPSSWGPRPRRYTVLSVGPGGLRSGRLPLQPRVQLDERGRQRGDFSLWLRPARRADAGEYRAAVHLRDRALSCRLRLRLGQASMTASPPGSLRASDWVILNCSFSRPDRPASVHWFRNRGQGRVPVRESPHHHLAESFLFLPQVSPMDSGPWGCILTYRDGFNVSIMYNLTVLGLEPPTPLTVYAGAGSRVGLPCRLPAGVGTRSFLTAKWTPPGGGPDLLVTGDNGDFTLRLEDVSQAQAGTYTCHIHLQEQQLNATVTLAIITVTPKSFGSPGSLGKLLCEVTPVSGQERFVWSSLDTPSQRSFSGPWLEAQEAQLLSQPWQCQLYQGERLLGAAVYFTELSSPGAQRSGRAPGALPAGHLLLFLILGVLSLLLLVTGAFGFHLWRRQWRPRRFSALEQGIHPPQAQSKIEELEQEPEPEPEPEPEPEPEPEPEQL

human LAG-3 on cells [4] = target: T2, human LAG-3 on cells; assay: FACS affinity test on cell surface human LAG-3
[5] = target: T1, human LAG-3 protein (Example 3); assay: ELISA; blocking of LAG-3 protein binding to LSECtin; ELISA; blocking LAG-3 binding to LSECtin
[6] = target: T1, human LAG-3 protein (Example 3); assay: ELISA; blocking of LAG-3 protein binding to Galectin-3; ELISA; blocking LAG-3 binding to Galectin-3
[7] = target: T1, human LAG-3 protein (Example 3); assay: FACS; blocking of LAG-3 protein binding to MHC-II on Raji cells; FACS; blocking LAG-3 binding to MHC-II on Raji cells
human PD-1 on cells [8] = target: T3, human PD-1 on cells (human, UniProt Q15116 25-288); assay: cell-based or functional assay
T3 sequence (Q15116 25-288): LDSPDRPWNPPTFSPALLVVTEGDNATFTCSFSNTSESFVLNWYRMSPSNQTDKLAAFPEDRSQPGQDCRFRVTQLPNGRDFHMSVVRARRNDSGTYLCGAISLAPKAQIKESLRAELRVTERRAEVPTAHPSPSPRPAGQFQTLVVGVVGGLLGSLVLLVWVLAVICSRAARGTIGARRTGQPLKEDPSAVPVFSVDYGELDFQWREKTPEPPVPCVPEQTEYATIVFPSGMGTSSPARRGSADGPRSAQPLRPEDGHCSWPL

human LAG-3 on cells [9] = target: T2, human LAG-3 on cells; assay: cell-based or functional assay
human PD-1 on cells [10] = target: T3, human PD-1 on cells; assay: flow cytometry on human PD-1 expressing cells
Description: (§1) MFI of the cells was measured by flow cytometry and analyzed by FlowJo (version 7.6.1).

[11] = target: T4, mouse Fc-tagged human PD-1 protein (human, UniProt Q15116 25-170); assay: ELISA; antibody coated, mFc-tagged PD-1 titrated
T4 construct: extracellular domain; also called mouse Fc-tagged PD-1 protein; not shown: mouse Fc tag
T4 sequence (Q15116 25-170): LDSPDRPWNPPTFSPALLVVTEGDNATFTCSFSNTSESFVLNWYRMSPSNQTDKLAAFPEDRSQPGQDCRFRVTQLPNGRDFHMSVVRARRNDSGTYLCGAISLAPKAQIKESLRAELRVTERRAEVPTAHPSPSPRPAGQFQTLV

[12] = target: T5, mouse Fc-tagged human LAG-3 protein (human, UniProt P18627 23-450); assay: ELISA; antibody coated, mFc-tagged LAG-3 titrated
T5 construct: extracellular domain; also called mouse Fc-tagged LAG-3 protein; not shown: mouse Fc tag
T5 sequence (looked up): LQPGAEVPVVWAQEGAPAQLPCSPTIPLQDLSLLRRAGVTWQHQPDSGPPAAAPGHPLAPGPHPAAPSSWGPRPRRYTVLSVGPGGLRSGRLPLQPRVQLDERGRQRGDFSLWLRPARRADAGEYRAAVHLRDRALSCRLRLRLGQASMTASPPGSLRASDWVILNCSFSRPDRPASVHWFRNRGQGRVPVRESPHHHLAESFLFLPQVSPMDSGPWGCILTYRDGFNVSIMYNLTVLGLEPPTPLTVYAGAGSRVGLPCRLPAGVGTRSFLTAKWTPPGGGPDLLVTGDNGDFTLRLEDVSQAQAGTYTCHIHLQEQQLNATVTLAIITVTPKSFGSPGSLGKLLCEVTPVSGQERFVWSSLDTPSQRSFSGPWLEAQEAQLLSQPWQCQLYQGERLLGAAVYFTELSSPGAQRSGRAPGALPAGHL
Description: (§2) The plates were then washed and subsequently incubated with HRP-labeled goat anti-mouse IgG antibody for 1 hour. After washing, TMB substrate was added and the color reaction was stopped by 2M HCl. The absorbance at 450 nm was read using a microplate reader.

human LAG-3 on cells [13] = target: T2, human LAG-3 on cells; assay: flow cytometry on human LAG-3 expressing 293F cells
Description: as §1

cynomolgus PD-1 on cells = target: T6, cynomolgus PD-1 on cells (cynomolgus, UniProt B0LAJ3 25-288); assay: flow cytometry on cynomolgus PD-1 expressing 293F cells
T6 construct: also called cell surface cynomolgus PD-1
T6 sequence (B0LAJ3 entry or part of it limits assumed): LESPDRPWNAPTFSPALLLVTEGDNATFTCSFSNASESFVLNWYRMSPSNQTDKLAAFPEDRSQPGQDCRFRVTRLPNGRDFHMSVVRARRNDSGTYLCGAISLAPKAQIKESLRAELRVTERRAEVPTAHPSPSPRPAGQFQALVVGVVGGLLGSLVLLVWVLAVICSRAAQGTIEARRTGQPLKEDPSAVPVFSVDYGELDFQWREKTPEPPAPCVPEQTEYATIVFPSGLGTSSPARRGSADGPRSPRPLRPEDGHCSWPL
Description: (§3) MFI of the cells was measured by flow cytometry and analyzed by FlowJo.

[14] = target: T7, cynomolgus LAG-3 on cells (cynomolgus); assay: flow cytometry on cynomolgus LAG-3 expressing 293F cells
T7 construct: whole, on cells; also called cell surface cynomolgus LAG-3
Description: as §3

[15] = target: T8, His-tagged human PD-1 protein (MW: 40 KD) (human, UniProt Q15116 25-167); assay: SPR Biacore 8K; antibody captured on anti-human Fc, His-PD-1 injected
T8 construct: not shown: His tag
T8 sequence (Q15116 25-167 limits assumed): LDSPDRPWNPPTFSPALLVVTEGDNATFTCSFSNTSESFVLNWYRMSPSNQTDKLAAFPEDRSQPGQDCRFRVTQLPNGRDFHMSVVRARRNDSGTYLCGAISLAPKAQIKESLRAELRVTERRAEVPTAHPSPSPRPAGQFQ
Description: Binding affinity of the bispecific antibodies to the antigen were determined by SPR assay using Biacore 8K. PD-1×LAG-3 antibodies were captured on an anti-human IgG Fc antibody immobilized CMS sensor chip (GE).
(§4) The sensorgrams of blank surface and buffer channel were subtracted from the test sensorgrams. The experimental data was fitted by 1:1 model using Langmiur analysis.

[16] = target: T5, mouse Fc-tagged human LAG-3 protein; assay: flow cytometry; blocking of mFc-LAG-3 binding to MHC-II on Raji cells
Description: The mixture was transferred into the 96-well plates seeded with Raji cells which express MHC-II on the surface. […] The MFI was evaluated by flow cytometry and analyzed by the software FlowJo.

human PD-1 on cells [17] = target: T3, human PD-1 on cells; assay: flow cytometry; competition with mFc-PD-L1 on PD-1 expressing CHO-S cells
Description: The mixture was transferred into the 96-well plates seeded with PD-1 expressing CHO-S cells. […] The MFI was evaluated by flow cytometry and analyzed by the software FlowJo.

Human LAG-3 without tag = target: T9, Human LAG-3 without tag (human, UniProt P18627 23-450); assay: SPR; antibody immobilized, untagged human LAG-3 injected, single-cycle kinetics
T9 construct: extracellular domain; also called untagged LAG-3 ECD protein
T9 sequence (looked up): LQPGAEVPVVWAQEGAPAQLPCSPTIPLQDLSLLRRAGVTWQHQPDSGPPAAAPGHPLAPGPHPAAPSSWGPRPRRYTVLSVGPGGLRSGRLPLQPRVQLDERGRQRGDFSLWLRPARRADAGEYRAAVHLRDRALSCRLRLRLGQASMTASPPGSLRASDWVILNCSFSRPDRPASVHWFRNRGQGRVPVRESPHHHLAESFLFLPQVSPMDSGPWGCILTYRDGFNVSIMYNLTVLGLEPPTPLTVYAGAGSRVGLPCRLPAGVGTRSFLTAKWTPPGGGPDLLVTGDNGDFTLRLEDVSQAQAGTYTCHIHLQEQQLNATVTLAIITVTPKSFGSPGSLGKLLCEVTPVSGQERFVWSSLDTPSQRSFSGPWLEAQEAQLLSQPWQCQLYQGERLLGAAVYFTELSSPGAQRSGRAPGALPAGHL
Description: The chip was regenerated with 10 mM glycine (pH 1.5).
as §4

human CD4 protein = human CD4 protein (human, UniProt P01730 26-390, limits assumed); assay: ELISA, human CD4 coated at 1 ug/mL, antibody added at 0.67 and 6.7 nM, OD450
Description: (§5) Cross-reactivity to human CD4, CTLA-4 or CD28 was measured by ELISA. Plates were coated with human CD4, CTLA-4 or CD28 at 1 μg/mL overnight at 4° C. […] The plates were then washed and subsequently incubated with corresponding secondary antibody for 60 min. After washing, TMB substrate was added and the color reaction was stopped by 2M HCl.

human CD28 protein = target: T10, human CD28 protein (human, UniProt P10747 19-152); assay: ELISA, human CD28 coated at 1 ug/mL, antibody added at 0.67 and 6.7 nM, OD450
T10 construct: extracellular domain
Description: as §5

human CTLA-4 protein = target: T11, human CTLA-4 protein (human, UniProt P16410 36-161); assay: ELISA, human CTLA-4 coated at 1 ug/mL, antibody added at 0.67 and 6.7 nM, OD450
T11 construct: extracellular domain
T11 sequence (P16410 36-161): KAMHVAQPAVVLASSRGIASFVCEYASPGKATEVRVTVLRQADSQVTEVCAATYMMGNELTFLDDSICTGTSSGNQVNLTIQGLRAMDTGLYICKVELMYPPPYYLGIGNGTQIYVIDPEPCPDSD
Description: as §5

[18] = target: T4, mouse Fc-tagged human PD-1 protein; assay: dual-binding ELISA; mFc-PD-1 coated, antibody titrated, detected by His-tagged LAG-3 and anti-His-HRP
mouse PD-1 protein = target: T12, mouse PD-1 protein (mouse, UniProt Q02242 25-167, limits assumed); assay: ELISA, antibody coated on the plate, mouse PD-1 (His tag on the sheet) added at 0.25, 2.5 and 25 nM, OD450
T12 sequence (looked up): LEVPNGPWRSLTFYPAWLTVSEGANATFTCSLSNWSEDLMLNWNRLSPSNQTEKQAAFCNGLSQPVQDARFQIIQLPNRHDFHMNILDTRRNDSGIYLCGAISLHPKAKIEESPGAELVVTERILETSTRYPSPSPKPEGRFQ
Description: as §2, with “After blocking and washing, various concentrations of mouse PD-1 protein were added to the plates and incubated at room temperature for 1 hour. The plates” for “The plates”

EC50 [1]: 3.92 nM
Kd [2]: 0.0106 nM
EC50 (human LAG-3 on cells [3]): 0.13 nM
Kd (human LAG-3 on cells [4]): 0.053 nM
EC50 [5]: 0.51 nM
EC50 [6]: 0.56 nM
EC50 [7]: 0.67 nM
B1: W3395-3.40.19 (antibody, V domains shown)
VH: QLQLQESGPGLVKPSETLSLTCTVSGDSISSTSYYWGWIRQPPGKGLEWIGSFYYSGSTYYNPSLKSRVTISVDTSKNQFSLKLNSVTAADTAVYYCARMQLWSYDVDVWGQGTTVTVSS
VL: QSALTQPASVSGSPGQSITISCTGTSSDVGGYDYVAWYQQHPGKVPKLMIYDVSERPSGVSNRFSGSKSGNTASLTISGLQAEDEADYYCSSYTSTTTLVVFGGGTKLSVL
notes: Fully human monoclonal anti-LAG-3 antibody; also called human W3395-3.40.19 LAG-3 Ab

EC50 of NFAT pathways enhancement (luciferase reporter) (human PD-1 on cells [8]): 0.41 nM
EC50 of IL-2 pathways enhancement (luciferase reporter) (human LAG-3 on cells [9]): 0.32 nM
EC50 (human PD-1 on cells [10]): 1.34 nM
EC50 [11]: 0.07 nM
EC50 [12]: 0.32 nM
EC50 (human LAG-3 on cells [13]): 5.88 nM
EC50 (cynomolgus PD-1 on cells): 0.31 nM
EC50 [14]: 20.9 nM
Kd [15]: 2.16 nM
koff [15]: 0.000592 s⁻¹
kon [15]: 275000 M⁻¹ s⁻¹
IC50 [16]: 1.68 nM
IC50 (human PD-1 on cells [17]): 1.09 nM
Kd (Human LAG-3 without tag): 0.0265 nM
koff (Human LAG-3 without tag): 1.89e-05 s⁻¹
kon (Human LAG-3 without tag): 714000 M⁻¹ s⁻¹
binding result (human CD4 protein): no binding (tested: 6.7 nM)
binding result (human CD28 protein): no binding (tested: 6.7 nM)
binding result (human CTLA-4 protein): no binding (tested: 6.7 nM)
EC50 [18]: 0.05 nM
binding result (mouse PD-1 protein): no binding (tested: 25 nM (mouse PD-1))
B2: W365-U6T1.G15-1.uIgG4.SP (bispecific antibody)
heavy: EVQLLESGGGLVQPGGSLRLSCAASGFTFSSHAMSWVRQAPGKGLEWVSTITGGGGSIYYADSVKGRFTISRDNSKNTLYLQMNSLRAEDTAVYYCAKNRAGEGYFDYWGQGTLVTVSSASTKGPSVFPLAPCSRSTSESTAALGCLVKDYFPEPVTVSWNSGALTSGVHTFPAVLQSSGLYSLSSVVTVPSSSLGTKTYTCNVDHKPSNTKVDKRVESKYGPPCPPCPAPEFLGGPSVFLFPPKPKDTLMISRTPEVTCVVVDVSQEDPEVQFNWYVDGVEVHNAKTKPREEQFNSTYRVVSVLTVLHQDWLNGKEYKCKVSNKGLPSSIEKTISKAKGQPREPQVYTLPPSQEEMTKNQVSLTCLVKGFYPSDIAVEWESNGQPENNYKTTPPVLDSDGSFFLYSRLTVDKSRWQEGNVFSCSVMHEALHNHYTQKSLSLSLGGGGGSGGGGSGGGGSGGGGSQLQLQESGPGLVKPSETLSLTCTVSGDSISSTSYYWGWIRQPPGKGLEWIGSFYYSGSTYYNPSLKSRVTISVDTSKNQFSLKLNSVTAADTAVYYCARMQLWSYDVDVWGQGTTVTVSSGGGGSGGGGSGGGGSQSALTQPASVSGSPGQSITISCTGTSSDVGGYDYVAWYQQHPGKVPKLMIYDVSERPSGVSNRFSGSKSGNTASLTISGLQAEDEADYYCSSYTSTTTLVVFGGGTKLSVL
light: SYELTQPLSVSVALGQTARITCGGDNIGNKDVHWYQQKPGQAPVLVIYRDSNRPSGIPEGFSGSNSGNTATLTISRAQAGDEADYYCQVWDSIWVFGGGTKLTVLGQPKAAPSVTLFPPSSEELQANKATLVCLISDFYPGAVTVAWKADSSPVKAGVETTTPSKQSNNKYAASSYLSLTPEQWKSHKSYSCQVTHEGSTVEKTVAPTECS
notes: Anti-PD-1 (W3055-1.153.7) human IgG4 S228P; also called W365-G15

From patent US20210115138A1 (WUXI BIOLOGICS IRELAND, published 2021)
